In article PMC9482650, “Quantitative fragmentomics allow affinity mapping of interactomes” (Nature Communications, 2022):
Values belong to the binder of their own block, whether it stands above or below them.

Columns and labels:
Experiment in all cases: holdup assay
Design in all cases: key: below the threshold = too weak to quantify, mostly under pKd 3.1 to 4
GRIP2_4, Q9C0E4 = biological target: GRIP2_4, Q9C0E4
GRIP1_3, Q9Y3R0 = biological target: T1, GRIP1_3, Q9Y3R0
T1 sequence (Q9Y3R0 247-346, limits assumed, looked up): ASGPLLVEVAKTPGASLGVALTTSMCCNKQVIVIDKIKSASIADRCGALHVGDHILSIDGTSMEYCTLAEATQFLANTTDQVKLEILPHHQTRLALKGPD

PDZRN3_1, Q9UPQ7 = biological target: T2, PDZRN3_1, Q9UPQ7
T2 sequence (Q9UPQ7 244-349, limits assumed, looked up): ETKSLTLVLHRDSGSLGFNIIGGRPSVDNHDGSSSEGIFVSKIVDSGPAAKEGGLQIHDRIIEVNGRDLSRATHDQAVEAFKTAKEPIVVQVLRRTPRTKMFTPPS

RHPN1, Q8TCX5 = biological target: T3, RHPN1, Q8TCX5
T3 sequence (Q8TCX5 508-602, limits assumed, looked up): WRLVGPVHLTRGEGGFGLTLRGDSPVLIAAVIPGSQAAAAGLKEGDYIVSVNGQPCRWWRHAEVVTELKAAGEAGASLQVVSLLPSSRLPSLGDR

PICK1, Q9NRD5 = biological target: PICK1, Q9NRD5
DLG1_2, Q12959 = biological target: DLG1_2, Q12959
ARHGEF12, Q9NZN5-2 = biological target: ARHGEF12, Q9NZN5-2
Inadl_5, Q8NI35 = biological target: Inadl_5, Q8NI35
DLG4_1, P78352 = biological target: DLG4_1, P78352
PCLO, Q9Y6V0 = biological target: T4, PCLO, Q9Y6V0
T4 sequence (Q9Y6V0 4491-4600, limits assumed, looked up): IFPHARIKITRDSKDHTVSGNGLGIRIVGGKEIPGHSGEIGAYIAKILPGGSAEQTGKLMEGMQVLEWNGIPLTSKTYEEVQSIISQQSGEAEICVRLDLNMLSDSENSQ

NHERF3_4, Q5T2W1 = biological target: T5, NHERF3_4, Q5T2W1
T5 sequence (Q5T2W1 373-468, limits assumed, looked up): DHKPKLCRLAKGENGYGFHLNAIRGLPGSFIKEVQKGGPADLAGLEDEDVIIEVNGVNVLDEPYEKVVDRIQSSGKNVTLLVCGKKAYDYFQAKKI

Inadl_2, Q8NI35 = biological target: Inadl_2, Q8NI35
LIN7A, O14910 = biological target: T6, LIN7A, O14910
T6 sequence (O14910 103-200, limits assumed, looked up): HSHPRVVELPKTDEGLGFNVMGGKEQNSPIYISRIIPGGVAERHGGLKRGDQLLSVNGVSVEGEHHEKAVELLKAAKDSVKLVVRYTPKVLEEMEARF

PARD3_3, Q8TEW0 = biological target: PARD3_3, Q8TEW0
HTRA4, P83105 = biological target: T7, HTRA4, P83105
T7 sequence (P83105 378-476, limits assumed, looked up): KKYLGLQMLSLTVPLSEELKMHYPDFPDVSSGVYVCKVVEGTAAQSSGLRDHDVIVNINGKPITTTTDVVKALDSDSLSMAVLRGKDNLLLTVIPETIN

MPP7, Q5T2T1 = biological target: T8, MPP7, Q5T2T1
T8 sequence (Q5T2T1 134-230, limits assumed, looked up): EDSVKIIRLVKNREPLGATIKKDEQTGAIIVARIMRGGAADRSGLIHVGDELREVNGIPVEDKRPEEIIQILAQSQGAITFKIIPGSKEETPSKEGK

DFNB31_1, Q9P202 = biological target: T9, DFNB31_1, Q9P202
T9 sequence (Q9P202 135-233, limits assumed, looked up): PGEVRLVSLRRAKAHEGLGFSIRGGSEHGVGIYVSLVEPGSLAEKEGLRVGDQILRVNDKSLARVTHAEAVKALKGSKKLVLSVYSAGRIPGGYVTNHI

MAST2, Q6P0Q8 = biological target: MAST2, Q6P0Q8
RADIL, Q96JH8 = biological target: T10, RADIL, Q96JH8
T10 sequence (Q96JH8 971-1071, limits assumed, looked up): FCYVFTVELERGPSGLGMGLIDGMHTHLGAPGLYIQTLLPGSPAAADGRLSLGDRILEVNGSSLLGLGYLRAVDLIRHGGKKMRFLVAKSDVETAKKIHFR

MAGI1_2, Q96QZ7 = biological target: MAGI1_2, Q96QZ7
LRRC7, Q96NW7 = biological target: T11, LRRC7, Q96NW7
T11 sequence (Q96NW7 1440-1537, limits assumed, looked up): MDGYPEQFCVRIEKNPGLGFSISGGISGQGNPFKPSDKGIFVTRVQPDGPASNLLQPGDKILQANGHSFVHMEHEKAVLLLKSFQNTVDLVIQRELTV

LAP2, Q96RT1 = biological target: LAP2, Q96RT1
IL16_1, Q14005 = biological target: IL16_1, Q14005
NHERF3_1, Q5T2W1 = biological target: T12, NHERF3_1, Q5T2W1
T12 sequence (Q5T2W1 4-100, limits assumed, looked up): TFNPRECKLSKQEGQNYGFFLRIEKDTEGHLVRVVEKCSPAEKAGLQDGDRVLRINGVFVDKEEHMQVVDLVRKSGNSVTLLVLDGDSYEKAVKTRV

[1] = plain residues with an end cap or a label only (N-terminal biotin on a linker: ttds)
[2] = plain residues with an end cap or a label only (N-terminal biotin on a linker: ado-ado)

Chain of GRIP2_4, Q9C0E4 (Q9C0E4 446-548): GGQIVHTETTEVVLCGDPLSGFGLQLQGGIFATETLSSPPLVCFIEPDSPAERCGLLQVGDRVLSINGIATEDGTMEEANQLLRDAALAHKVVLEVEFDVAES
Chain of Inadl_2, Q8NI35 (Q8NI35 238-335): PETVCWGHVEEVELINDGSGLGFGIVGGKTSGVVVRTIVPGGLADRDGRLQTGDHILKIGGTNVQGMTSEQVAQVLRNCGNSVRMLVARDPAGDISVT
Chain of IL16_1, Q14005 (Q14005 210-306): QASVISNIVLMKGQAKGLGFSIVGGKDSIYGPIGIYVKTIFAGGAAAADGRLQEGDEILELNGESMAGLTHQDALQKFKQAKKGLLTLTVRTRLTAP
Chain of DLG4_1, P78352 (P78352 62-152): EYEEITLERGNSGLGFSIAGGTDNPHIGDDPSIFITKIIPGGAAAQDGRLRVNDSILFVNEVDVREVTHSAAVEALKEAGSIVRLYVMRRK
Chain of PARD3_3, Q8TEW0 (Q8TEW0 582-685): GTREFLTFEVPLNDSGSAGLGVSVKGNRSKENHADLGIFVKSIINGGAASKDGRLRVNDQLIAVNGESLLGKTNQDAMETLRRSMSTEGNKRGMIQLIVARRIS
Chain of PICK1, Q9NRD5 (Q9NRD5 17-115): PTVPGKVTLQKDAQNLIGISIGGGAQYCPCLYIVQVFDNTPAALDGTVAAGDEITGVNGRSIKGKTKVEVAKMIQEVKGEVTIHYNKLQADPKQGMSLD
Chain of MAST2, Q6P0Q8 (Q6P0Q8 1099-1202): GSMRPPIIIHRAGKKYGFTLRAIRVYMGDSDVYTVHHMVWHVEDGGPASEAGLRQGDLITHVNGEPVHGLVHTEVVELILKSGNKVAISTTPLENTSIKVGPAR
Chain of DLG1_2, Q12959 (Q12959 314-412): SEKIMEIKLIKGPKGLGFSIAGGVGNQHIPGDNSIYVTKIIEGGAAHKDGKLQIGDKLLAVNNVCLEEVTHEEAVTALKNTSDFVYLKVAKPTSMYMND
Chain of LAP2, Q96RT1 (Q96RT1 other isoform, or with tags, fused parts or gaps): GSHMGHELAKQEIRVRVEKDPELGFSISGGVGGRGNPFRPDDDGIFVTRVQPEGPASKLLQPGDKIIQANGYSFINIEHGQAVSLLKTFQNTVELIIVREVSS
Chain of Inadl_5, Q8NI35 (Q8NI35 673-780): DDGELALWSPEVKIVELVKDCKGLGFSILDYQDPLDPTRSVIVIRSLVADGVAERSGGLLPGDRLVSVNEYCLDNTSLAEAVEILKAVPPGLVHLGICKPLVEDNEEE
Chain of MAGI1_2, Q96QZ7 (Q96QZ7 456-580): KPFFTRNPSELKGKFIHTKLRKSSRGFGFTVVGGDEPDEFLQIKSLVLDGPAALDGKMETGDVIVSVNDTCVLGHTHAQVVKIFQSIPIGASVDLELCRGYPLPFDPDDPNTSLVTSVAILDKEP
Chain of ARHGEF12, Q9NZN5-2 (Q9NZN5 other isoform, or with tags, fused parts or gaps): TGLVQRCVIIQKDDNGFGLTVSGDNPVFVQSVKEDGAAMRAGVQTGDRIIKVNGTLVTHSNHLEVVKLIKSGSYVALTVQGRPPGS

- pKd (GRIP2_4, Q9C0E4; [1]): below the threshold
- pKd (GRIP1_3, Q9Y3R0; [1]): below the threshold
- pKd (PDZRN3_1, Q9UPQ7; [1]): 3.75
- pKd (RHPN1, Q8TCX5; [1]): 4.26
- pKd (PICK1, Q9NRD5; [1]): below the threshold
- pKd (DLG1_2, Q12959; [1]): 3.7
- pKd (ARHGEF12, Q9NZN5-2; [1]): 5.45
- pKd (Inadl_5, Q8NI35; [1]): below the threshold
- pKd (DLG4_1, P78352; [1]): 3.68
- pKd (PCLO, Q9Y6V0; [1]): below the threshold
- pKd (NHERF3_4, Q5T2W1; [1]): 3.65
- pKd (Inadl_2, Q8NI35; [1]): below the threshold
- pKd (LIN7A, O14910; [1]): below the threshold
- pKd (PARD3_3, Q8TEW0; [1]): 3.71
- pKd (HTRA4, P83105; [1]): 3.71
- pKd (MPP7, Q5T2T1; [1]): 3.61
- pKd (DFNB31_1, Q9P202; [1]): 3.53
- pKd (MAST2, Q6P0Q8; [1]): 5.37
- pKd (RADIL, Q96JH8; [1]): 3.54
- pKd (MAGI1_2, Q96QZ7; [1]): 4.3
- pKd (LRRC7, Q96NW7; [1]): 3.55
- pKd (LAP2, Q96RT1; [1]): below the threshold
- pKd (IL16_1, Q14005; [1]): below the threshold
- pKd (NHERF3_1, Q5T2W1; [1]): 4.03
B1: RPS6KA1, Q15418 (peptide)
chain: RRVRKLPSTTL

- pKd (GRIP2_4, Q9C0E4; [1]): below the threshold
- pKd (GRIP1_3, Q9Y3R0; [1]): below the threshold
- pKd (PDZRN3_1, Q9UPQ7; [1]): 5.71
- pKd (RHPN1, Q8TCX5; [1]): 5.14
- pKd (PICK1, Q9NRD5; [1]): below the threshold
- pKd (DLG1_2, Q12959; [1]): 5.37
- pKd (ARHGEF12, Q9NZN5-2; [1]): 4.94
- pKd (Inadl_5, Q8NI35; [1]): below the threshold
- pKd (DLG4_1, P78352; [1]): 4.29
- pKd (PCLO, Q9Y6V0; [1]): below the threshold
- pKd (NHERF3_4, Q5T2W1; [1]): below the threshold
- pKd (Inadl_2, Q8NI35; [1]): below the threshold
- pKd (LIN7A, O14910; [1]): 4.14
- pKd (PARD3_3, Q8TEW0; [1]): below the threshold
- pKd (HTRA4, P83105; [1]): below the threshold
- pKd (MPP7, Q5T2T1; [1]): below the threshold
- pKd (DFNB31_1, Q9P202; [1]): 4.44
- pKd (MAST2, Q6P0Q8; [1]): 6.05
- pKd (RADIL, Q96JH8; [1]): below the threshold
- pKd (MAGI1_2, Q96QZ7; [1]): 4.15
- pKd (LRRC7, Q96NW7; [1]): 4.31
- pKd (LAP2, Q96RT1; [1]): 3.92
- pKd (IL16_1, Q14005; [1]): below the threshold
- pKd (NHERF3_1, Q5T2W1; [1]): 5.4
B2: SLCO1C1, Q9NYB5 (peptide)
chain: NYWPGKETQL

- pKd (GRIP2_4, Q9C0E4; [2]): below the threshold
- pKd (GRIP1_3, Q9Y3R0; [2]): below the threshold
- pKd (PDZRN3_1, Q9UPQ7; [2]): 3.65
- pKd (RHPN1, Q8TCX5; [2]): 3.79
- pKd (PICK1, Q9NRD5; [2]): below the threshold
- pKd (DLG1_2, Q12959; [2]): below the threshold
- pKd (ARHGEF12, Q9NZN5-2; [2]): 3.51
- pKd (Inadl_5, Q8NI35; [2]): below the threshold
- pKd (DLG4_1, P78352; [2]): 3.57
- pKd (PCLO, Q9Y6V0; [2]): below the threshold
- pKd (NHERF3_4, Q5T2W1; [2]): below the threshold
- pKd (Inadl_2, Q8NI35; [2]): below the threshold
- pKd (LIN7A, O14910; [2]): below the threshold
- pKd (PARD3_3, Q8TEW0; [2]): below the threshold
- pKd (HTRA4, P83105; [2]): below the threshold
- pKd (MPP7, Q5T2T1; [2]): below the threshold
- pKd (DFNB31_1, Q9P202; [2]): below the threshold
- pKd (MAST2, Q6P0Q8; [2]): below the threshold
- pKd (RADIL, Q96JH8; [2]): 3.61
- pKd (MAGI1_2, Q96QZ7; [2]): below the threshold
- pKd (LRRC7, Q96NW7; [2]): below the threshold
- pKd (LAP2, Q96RT1; [2]): below the threshold
- pKd (IL16_1, Q14005; [2]): below the threshold
- pKd (NHERF3_1, Q5T2W1; [2]): 3.75
B3: RCN1, Q15293 (peptide)
chain: EDLTKNHDEL
